Laboratory results published in US20200173960A1.
Blank lines part the entries; values can stand above or below the substance they belong to.

Tests used:
trastuzumab [1] = experiment: cell-based or functional assay
trastuzumab [2] = experiment: method not stated; affinity listed for the purchased ADA
trastuzumab [3] = experiment: ELISA Kit A (anti-idiotype capture) of trastuzumab 50 ug/mL pre-bound with ADA; trastuzumab:ADA 1:1
trastuzumab [4] = experiment: ELISA Kit A (anti-idiotype capture) of trastuzumab 50 ug/mL pre-bound with ADA; trastuzumab:ADA 5:1
trastuzumab [5] = experiment: ELISA Kit A (anti-idiotype capture) of trastuzumab 0.5 ug/mL pre-bound with ADA; trastuzumab:ADA 1:1
trastuzumab [6] = experiment: ELISA Kit A (anti-idiotype capture) of trastuzumab 0.5 ug/mL pre-bound with ADA; trastuzumab:ADA 1:2
trastuzumab [7] = experiment: ELISA Kit A (anti-idiotype capture) of trastuzumab 0.5 ug/mL pre-bound with ADA; trastuzumab:ADA 1:5
trastuzumab [8] = experiment: ELISA Kit A (anti-idiotype capture) of trastuzumab 0.5 ug/mL pre-bound with ADA; trastuzumab:ADA 5:1
trastuzumab [9] = experiment: ELISA Kit A (anti-idiotype capture) of trastuzumab 50 ug/mL pre-bound with ADA; trastuzumab:ADA 10:1
trastuzumab [10] = experiment: ELISA Kit A (anti-idiotype capture) of trastuzumab 0.5 ug/mL pre-bound with ADA; trastuzumab:ADA 10:1
trastuzumab [11] = experiment: ELISA Kit A (anti-idiotype capture) of trastuzumab 0.5 ug/mL pre-bound with ADA; trastuzumab:ADA 1:10
trastuzumab [12] = experiment: ELISA Kit A (anti-idiotype capture) of trastuzumab 0.5 ug/mL pre-bound with ADA; trastuzumab:ADA 1:50
trastuzumab [13] = experiment: ELISA Kit A (anti-idiotype capture) of trastuzumab 50 ug/mL pre-bound with ADA; trastuzumab:ADA 100:1
trastuzumab [14] = experiment: ELISA Kit A (anti-idiotype capture) of trastuzumab 0.5 ug/mL pre-bound with ADA; trastuzumab:ADA 1:100
trastuzumab [15] = experiment: ELISA Kit B (HER2 capture, anti-human IgG Fc detection) of trastuzumab 0.5 ug/mL pre-bound with ADA; trastuzumab:ADA 1:1
trastuzumab [16] = experiment: ELISA Kit B (HER2 capture, anti-human IgG Fc detection) of trastuzumab 0.5 ug/mL pre-bound with ADA; trastuzumab:ADA 10:1
trastuzumab [17] = experiment: ELISA Kit B (HER2 capture, anti-human IgG Fc detection) of trastuzumab 0.5 ug/mL pre-bound with ADA; trastuzumab:ADA 1:10
bevacizumab [18] = experiment: cell-based or functional assay
bevacizumab [19] = experiment: Bevacizumab PK ELISA (anti-idiotype capture) of bevacizumab 50 ug/mL pre-bound with ADA; bevacizumab:ADA 1:1
bevacizumab [20] = experiment: Bevacizumab PK ELISA (anti-idiotype capture) of bevacizumab 50 ug/mL pre-bound with ADA; bevacizumab:ADA 5:1
bevacizumab [21] = experiment: Bevacizumab PK ELISA (anti-idiotype capture) of bevacizumab 0.5 ug/mL pre-bound with ADA; bevacizumab:ADA 1:1
bevacizumab [22] = experiment: Bevacizumab PK ELISA (anti-idiotype capture) of bevacizumab 0.5 ug/mL pre-bound with ADA; bevacizumab:ADA 1:2
bevacizumab [23] = experiment: Bevacizumab PK ELISA (anti-idiotype capture) of bevacizumab 0.5 ug/mL pre-bound with ADA; bevacizumab:ADA 1:5
bevacizumab [24] = experiment: Bevacizumab PK ELISA (anti-idiotype capture) of bevacizumab 0.5 ug/mL pre-bound with ADA; bevacizumab:ADA 5:1
bevacizumab [25] = experiment: Bevacizumab PK ELISA (anti-idiotype capture) of bevacizumab 50 ug/mL pre-bound with ADA; bevacizumab:ADA 10:1
bevacizumab [26] = experiment: Bevacizumab PK ELISA (anti-idiotype capture) of bevacizumab 0.5 ug/mL pre-bound with ADA; bevacizumab:ADA 10:1
bevacizumab [27] = experiment: Bevacizumab PK ELISA (anti-idiotype capture) of bevacizumab 0.5 ug/mL pre-bound with ADA; bevacizumab:ADA 1:10
bevacizumab [28] = experiment: Bevacizumab PK ELISA (anti-idiotype capture) of bevacizumab 0.5 ug/mL pre-bound with ADA; bevacizumab:ADA 1:50
bevacizumab [29] = experiment: Bevacizumab PK ELISA (anti-idiotype capture) of bevacizumab 50 ug/mL pre-bound with ADA; bevacizumab:ADA 100:1
bevacizumab [30] = experiment: Bevacizumab PK ELISA (anti-idiotype capture) of bevacizumab 0.5 ug/mL pre-bound with ADA; bevacizumab:ADA 1:100
trastuzumab [31] = experiment: ELISA Kit B (HER2 capture, anti-human IgG Fc detection) of trastuzumab 0.5 ug/mL pre-bound with ADA; trastuzumab:ADA 1:100

- Accuracy (%) nSMOL; trastuzumab 0.5 ug/mL; trastuzumab:ADA 1:1 (trastuzumab [1]): 96.1%
- Accuracy (%) nSMOL; trastuzumab 0.5 ug/mL; trastuzumab:ADA 1:2 (trastuzumab [1]): 84.4%
- Accuracy (%) nSMOL; trastuzumab 0.5 ug/mL; trastuzumab:ADA 1:5 (trastuzumab [1]): 78.7%
- Accuracy (%) nSMOL; trastuzumab 0.5 ug/mL; trastuzumab:ADA 1:10 (trastuzumab [1]): 81%
- Accuracy (%) nSMOL; trastuzumab 0.5 ug/mL; trastuzumab:ADA 1:50 (trastuzumab [1]): 89.5%
- Accuracy (%) nSMOL; trastuzumab 0.5 ug/mL; trastuzumab:ADA 1:100 (trastuzumab [1]): 74.1%
- Accuracy (%) nSMOL; trastuzumab 0.5 ug/mL; trastuzumab:ADA 5:1 (trastuzumab [1]): 98.7%
- Accuracy (%) nSMOL; trastuzumab 0.5 ug/mL; trastuzumab:ADA 10:1 (trastuzumab [1]): 98.4%
- Accuracy (%) nSMOL; trastuzumab 50 ug/mL; trastuzumab:ADA 1:1 (trastuzumab [1]): 88%
- Accuracy (%) nSMOL; trastuzumab 50 ug/mL; trastuzumab:ADA 5:1 (trastuzumab [1]): 99.4%
- Accuracy (%) nSMOL; trastuzumab 50 ug/mL; trastuzumab:ADA 10:1 (trastuzumab [1]): 103%
- Accuracy (%) nSMOL; trastuzumab 50 ug/mL; trastuzumab:ADA 100:1 (trastuzumab [1]): 96.2%
- Accuracy (%) nSMOL; trastuzumab first immobilized on Protein A; trastuzumab:ADA 1:1 (trastuzumab [1]): 89.2%
- Accuracy (%) nSMOL; trastuzumab first immobilized on Protein A; trastuzumab:ADA 5:1 (trastuzumab [1]): 97.3%
- Accuracy (%) nSMOL; trastuzumab first immobilized on Protein A; trastuzumab:ADA 10:1 (trastuzumab [1]): 103%
- Accuracy (%) nSMOL; trastuzumab first immobilized on Protein A; trastuzumab:ADA 100:1 (trastuzumab [1]): 94.7%
- inhibitory effect on quantification values (nSMOL), ratio 1:1 (trastuzumab [1]): 10%
- Kd (trastuzumab [2]): 0.02 nM
- Accuracy (%) ELISA (trastuzumab [3]): 84.5%
- Accuracy (%) ELISA (trastuzumab [4]): 92%
- Accuracy (%) ELISA (trastuzumab [5]): 110%
- Accuracy (%) ELISA (trastuzumab [6]): 99.9%
- Accuracy (%) ELISA (trastuzumab [7]): 99.4%
- Accuracy (%) ELISA (trastuzumab [8]): 112%
- Accuracy (%) ELISA (trastuzumab [9]): 85.3%
- Accuracy (%) ELISA (trastuzumab [10]): 103%
- Accuracy (%) ELISA (trastuzumab [11]): 108%
- Accuracy (%) ELISA (trastuzumab [12]): 112%
- Accuracy (%) ELISA (trastuzumab [13]): 98%
- Accuracy (%) ELISA (trastuzumab [14]): 106%
- Accuracy (%) Kit B (trastuzumab [15]): 46%
- Accuracy (%) Kit B (trastuzumab [16]): 97.4%
- Accuracy (%) Kit B (trastuzumab [17]): 0.962%
Substance: HCA177 (antibody)

- Accuracy (%) nSMOL; bevacizumab 0.5 ug/mL; bevacizumab:ADA 1:1 (bevacizumab [18]): 98.2%
- Accuracy (%) nSMOL; bevacizumab 0.5 ug/mL; bevacizumab:ADA 1:2 (bevacizumab [18]): 110%
- Accuracy (%) nSMOL; bevacizumab 0.5 ug/mL; bevacizumab:ADA 1:5 (bevacizumab [18]): 111%
- Accuracy (%) nSMOL; bevacizumab 0.5 ug/mL; bevacizumab:ADA 1:10 (bevacizumab [18]): 110%
- Accuracy (%) nSMOL; bevacizumab 0.5 ug/mL; bevacizumab:ADA 1:50 (bevacizumab [18]): 110%
- Accuracy (%) nSMOL; bevacizumab 0.5 ug/mL; bevacizumab:ADA 1:100 (bevacizumab [18]): 104%
- Accuracy (%) nSMOL; bevacizumab 0.5 ug/mL; bevacizumab:ADA 5:1 (bevacizumab [18]): 98%
- Accuracy (%) nSMOL; bevacizumab 0.5 ug/mL; bevacizumab:ADA 10:1 (bevacizumab [18]): 91.3%
- Accuracy (%) nSMOL; bevacizumab 50 ug/mL; bevacizumab:ADA 1:1 (bevacizumab [18]): 102%
- Accuracy (%) nSMOL; bevacizumab 50 ug/mL; bevacizumab:ADA 5:1 (bevacizumab [18]): 97.3%
- Accuracy (%) nSMOL; bevacizumab 50 ug/mL; bevacizumab:ADA 10:1 (bevacizumab [18]): 100%
- Accuracy (%) nSMOL; bevacizumab 50 ug/mL; bevacizumab:ADA 100:1 (bevacizumab [18]): 101%
- Accuracy (%) nSMOL; bevacizumab first immobilized on Protein A; bevacizumab:ADA 1:1 (bevacizumab [18]): 106%
- Accuracy (%) nSMOL; bevacizumab first immobilized on Protein A; bevacizumab:ADA 5:1 (bevacizumab [18]): 106%
- Accuracy (%) nSMOL; bevacizumab first immobilized on Protein A; bevacizumab:ADA 10:1 (bevacizumab [18]): 104%
- Accuracy (%) nSMOL; bevacizumab first immobilized on Protein A; bevacizumab:ADA 100:1 (bevacizumab [18]): 109%
- Accuracy (%) ELISA (bevacizumab [19]): 5.72%
- Accuracy (%) ELISA (bevacizumab [20]): 65.5%
- Accuracy (%) ELISA (bevacizumab [21]): 6.9%
- Accuracy (%) ELISA (bevacizumab [22]): 3.2%
- Accuracy (%) ELISA (bevacizumab [23]): 2.3%
- Accuracy (%) ELISA (bevacizumab [24]): 14.2%
- Accuracy (%) ELISA (bevacizumab [25]): 68.5%
- Accuracy (%) ELISA (bevacizumab [26]): 44.2%
- Accuracy (%) ELISA (bevacizumab [27]): 2.4%
- Accuracy (%) ELISA (bevacizumab [28]): 0.1%
- Accuracy (%) ELISA (bevacizumab [29]): 102%
- Accuracy (%) ELISA (bevacizumab [30]): 0%
Substance: MAB11128 (clone2C8) (antibody)

- Accuracy (%) nSMOL; trastuzumab 0.5 ug/mL; trastuzumab:ADA 1:1 (trastuzumab [1]): 102%
- Accuracy (%) nSMOL; trastuzumab 0.5 ug/mL; trastuzumab:ADA 1:2 (trastuzumab [1]): 97.8%
- Accuracy (%) nSMOL; trastuzumab 0.5 ug/mL; trastuzumab:ADA 1:5 (trastuzumab [1]): 108%
- Accuracy (%) nSMOL; trastuzumab 0.5 ug/mL; trastuzumab:ADA 1:10 (trastuzumab [1]): 109%
- Accuracy (%) nSMOL; trastuzumab 0.5 ug/mL; trastuzumab:ADA 1:50 (trastuzumab [1]): 115%
- Accuracy (%) nSMOL; trastuzumab 0.5 ug/mL; trastuzumab:ADA 1:100 (trastuzumab [1]): 100%
- Accuracy (%) nSMOL; trastuzumab 0.5 ug/mL; trastuzumab:ADA 5:1 (trastuzumab [1]): 103%
- Accuracy (%) nSMOL; trastuzumab 0.5 ug/mL; trastuzumab:ADA 10:1 (trastuzumab [1]): 105%
- Accuracy (%) nSMOL; trastuzumab 50 ug/mL; trastuzumab:ADA 1:1 (trastuzumab [1]): 102%
- Accuracy (%) nSMOL; trastuzumab 50 ug/mL; trastuzumab:ADA 5:1 (trastuzumab [1]): 105%
- Accuracy (%) nSMOL; trastuzumab 50 ug/mL; trastuzumab:ADA 10:1 (trastuzumab [1]): 110%
- Accuracy (%) nSMOL; trastuzumab 50 ug/mL; trastuzumab:ADA 100:1 (trastuzumab [1]): 102%
- Accuracy (%) nSMOL; trastuzumab first immobilized on Protein A; trastuzumab:ADA 1:1 (trastuzumab [1]): 96.2%
- Accuracy (%) nSMOL; trastuzumab first immobilized on Protein A; trastuzumab:ADA 5:1 (trastuzumab [1]): 108%
- Accuracy (%) nSMOL; trastuzumab first immobilized on Protein A; trastuzumab:ADA 10:1 (trastuzumab [1]): 105%
- Accuracy (%) nSMOL; trastuzumab first immobilized on Protein A; trastuzumab:ADA 100:1 (trastuzumab [1]): 109%
- Accuracy (%) ELISA (trastuzumab [3]): 2.75%
- Accuracy (%) ELISA (trastuzumab [4]): 72.8%
- Accuracy (%) ELISA (trastuzumab [5]): 0.632%
- Accuracy (%) ELISA (trastuzumab [8]): 96.9%
- Accuracy (%) ELISA (trastuzumab [9]): 74.2%
- Accuracy (%) ELISA (trastuzumab [10]): 102%
- Accuracy (%) ELISA (trastuzumab [13]): 83.5%
- Accuracy (%) Kit B (trastuzumab [15]): 3.69%
- Accuracy (%) Kit B (trastuzumab [16]): 88.9%
- Accuracy (%) Kit B (trastuzumab [17]): 1.36%
- Accuracy (%) Kit B (trastuzumab [31]): 4.49%
Substance: MAB11130 (antibody)
